According to patent US20190270815A1 (WUXI BIOLOGICS IRELAND, published 2019):

Assays:
[1] = molecular target: T1, murine PD-1 (Sino biological) (murine, UniProt Q02242 25-167, limits assumed); assay: ELISA on plate-coated murine PD-1
T1 sequence (looked up): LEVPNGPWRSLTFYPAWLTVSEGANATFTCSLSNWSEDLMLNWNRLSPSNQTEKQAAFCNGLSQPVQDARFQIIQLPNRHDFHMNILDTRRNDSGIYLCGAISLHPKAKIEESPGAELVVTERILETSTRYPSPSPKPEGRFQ
Procedure: 3.3.1 Cross-reactivity to cynomolgus PD-1 and murine PD-1: Cross-reactivity was measured by ELISA. Plates (Nunc) were coated with cynomolgus PD-1 (Sino Biological) and murine PD-1 (Sino biological) at 1 μg/ml overnight at 4° C. After blocking and washing, […] antibodies were added to the plates and incubated at room temperature for 1 h. The plates were then washed and subsequently incubated with secondary antibody goat anti rat IgG1 HRP (Bethyl) and goat anti rat IgG2b HRP (Bethyl) for 45 min. After washing, TMB substrate was added and the interaction was stopped by 2M HCl. The absorbance at 450 nm was read using a microplate reader (Molecular Device).

[2] = molecular target: T2, hPD-1 ECD-His point mutant A 50 (to glycine) (human, UniProt Q15116 25-170); assay: ELISA, antibody coated, His-tagged PD-1 mutant supernatant; fold change vs silent alanine substitutions
T2 construct: extracellular domain
T2 sequence (Q15116 other isoform, or with tags, fused parts or gaps mutant): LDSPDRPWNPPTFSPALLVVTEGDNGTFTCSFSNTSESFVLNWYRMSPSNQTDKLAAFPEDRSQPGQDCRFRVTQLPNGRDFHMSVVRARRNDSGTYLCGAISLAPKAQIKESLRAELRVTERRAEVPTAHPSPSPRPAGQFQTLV
Procedure: (§1) After interacting with the supernatant that contains quantified PD-1 mutant, HRP conjugated anti-His antibody (Rockland, Cat#200-303-382) was added as detection antibody. Absorbance was normalized according to the average of control mutants. After setting an additional cutoff to t4he binding fold change (<0.55), the final determined epitope residues were identified.

[3] = molecular target: T3, hPD-1 ECD-His point mutant L 65 (to alanine) (human, UniProt Q15116 25-170); assay: as above
T3 construct: extracellular domain
T3 sequence (Q15116 other isoform, or with tags, fused parts or gaps mutant): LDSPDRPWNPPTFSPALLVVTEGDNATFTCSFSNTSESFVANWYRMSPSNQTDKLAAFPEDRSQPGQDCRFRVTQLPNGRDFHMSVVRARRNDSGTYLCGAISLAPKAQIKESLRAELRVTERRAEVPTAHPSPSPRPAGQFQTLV
Procedure: as §1

[4] = molecular target: T4, hPD-1 ECD-His point mutant D 85 (to alanine) (human, UniProt Q15116 25-170); assay: as above
T4 construct: extracellular domain
T4 sequence (Q15116 other isoform, or with tags, fused parts or gaps mutant): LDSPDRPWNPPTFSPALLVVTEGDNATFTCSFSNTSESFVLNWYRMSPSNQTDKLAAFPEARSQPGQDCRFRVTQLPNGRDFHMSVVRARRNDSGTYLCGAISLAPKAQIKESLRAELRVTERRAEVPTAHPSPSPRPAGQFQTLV
Procedure: as §1

[5] = molecular target: T5, hPD-1 ECD-His point mutant R 94 (to alanine) (human, UniProt Q15116 25-170); assay: as above
T5 construct: extracellular domain
T5 sequence (Q15116 other isoform, or with tags, fused parts or gaps mutant): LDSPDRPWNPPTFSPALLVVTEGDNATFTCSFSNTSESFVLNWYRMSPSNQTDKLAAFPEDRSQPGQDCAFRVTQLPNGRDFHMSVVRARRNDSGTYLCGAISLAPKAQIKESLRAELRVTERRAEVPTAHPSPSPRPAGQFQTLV
Procedure: as §1

[6] = molecular target: T6, hPD-1 ECD-His point mutant M 108 (to alanine) (human, UniProt Q15116 25-170); assay: as above
T6 construct: extracellular domain
T6 sequence (Q15116 other isoform, or with tags, fused parts or gaps mutant): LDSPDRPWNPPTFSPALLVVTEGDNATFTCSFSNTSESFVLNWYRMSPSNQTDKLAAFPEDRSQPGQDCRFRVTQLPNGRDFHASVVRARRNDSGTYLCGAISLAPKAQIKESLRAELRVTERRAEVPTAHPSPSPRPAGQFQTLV
Procedure: as §1

[7] = molecular target: T7, hPD-1 ECD-His point mutant I 126 (to alanine) (human, UniProt Q15116 25-170); assay: as above
T7 construct: extracellular domain
T7 sequence (Q15116 other isoform, or with tags, fused parts or gaps mutant): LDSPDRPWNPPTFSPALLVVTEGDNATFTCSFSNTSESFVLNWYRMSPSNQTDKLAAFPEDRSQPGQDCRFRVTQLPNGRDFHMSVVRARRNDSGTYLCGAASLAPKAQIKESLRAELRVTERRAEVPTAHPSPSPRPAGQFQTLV
Procedure: as §1

[8] = molecular target: T8, hPD-1 ECD-His point mutant A 129 (to glycine) (human, UniProt Q15116 25-170); assay: as above
T8 construct: extracellular domain
T8 sequence (Q15116 other isoform, or with tags, fused parts or gaps mutant): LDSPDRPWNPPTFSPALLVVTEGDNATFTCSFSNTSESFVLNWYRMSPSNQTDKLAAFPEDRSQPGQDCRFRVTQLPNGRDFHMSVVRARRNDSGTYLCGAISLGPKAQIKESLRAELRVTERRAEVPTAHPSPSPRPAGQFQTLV
Procedure: as §1

[9] = molecular target: T9, hPD-1 ECD-His point mutant A 132 (to glycine) (human, UniProt Q15116 25-170); assay: as above
T9 construct: extracellular domain
T9 sequence (Q15116 other isoform, or with tags, fused parts or gaps mutant): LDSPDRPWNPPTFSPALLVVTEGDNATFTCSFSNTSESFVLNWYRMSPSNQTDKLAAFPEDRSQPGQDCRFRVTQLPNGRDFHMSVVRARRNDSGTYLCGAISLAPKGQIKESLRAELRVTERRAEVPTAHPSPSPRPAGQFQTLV
Procedure: as §1

[10] = molecular target: T10, hPD-1 ECD-His point mutant K 135 (to alanine) (human, UniProt Q15116 25-170); assay: as above
T10 construct: extracellular domain
T10 sequence (Q15116 other isoform, or with tags, fused parts or gaps mutant): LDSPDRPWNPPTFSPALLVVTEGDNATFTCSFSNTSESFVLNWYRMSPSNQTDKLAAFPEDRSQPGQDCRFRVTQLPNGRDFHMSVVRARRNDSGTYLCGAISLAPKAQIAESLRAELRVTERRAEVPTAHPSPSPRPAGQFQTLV
Procedure: as §1

[11] = molecular target: T11, hPD-1 ECD-His point mutant S 137 (to alanine) (human, UniProt Q15116 25-170); assay: as above
T11 construct: extracellular domain
T11 sequence (Q15116 other isoform, or with tags, fused parts or gaps mutant): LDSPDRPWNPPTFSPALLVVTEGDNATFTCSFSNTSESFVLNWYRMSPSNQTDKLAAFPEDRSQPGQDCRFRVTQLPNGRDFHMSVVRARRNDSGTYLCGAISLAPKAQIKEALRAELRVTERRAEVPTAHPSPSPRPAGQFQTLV
Procedure: as §1

B1: 1.103.11 hAb (antibody, V domains shown)
VH: QLQLQESGPGLVKPSETLTLTCTVSADSISSTTYYWVWIRQPPGKGLEWIGSISYSGSTYYNPSLKSRVTVSVDTSKNQFSLKLNSVAATDTALYYCARHLGYNGRYLPFDYWGQGTLVTVSS
VL: QSALTQPASVSGSPGQSITISCTGTSSDVGFYNYVSWYQQHPGKAPELMIYDVSNRPSGVSDRFSGSKSGNTASLTISGLQAEDEADYYCSSYTNISTWVFGGGTKLTVL
notes: fully human monoclonal antibody with a human constant region of IgG4 isotype
With B1 the binding result [1] was “no binding (tested: 1 g/ml antibodies (so in the source))”, the fold change [2] was 0.73 and the fold change [3] was 0.75. It also gave a fold change [4] of 0.24, a fold change [5] of 0.7 and a fold change [6] of 0.56. For the same binder, the fold change [7] was 0.64, the fold change [8] was 0.22 and the fold change [9] was 0.53. The fold change [10] was 0.62 and the fold change [11] was 0.62.
